The target in data set [1] is T1, diketide-ACP2(4) (DEBS ACP2 with the C-terminal linker of module 4, loaded with diketide), Q03131.
T1 chain: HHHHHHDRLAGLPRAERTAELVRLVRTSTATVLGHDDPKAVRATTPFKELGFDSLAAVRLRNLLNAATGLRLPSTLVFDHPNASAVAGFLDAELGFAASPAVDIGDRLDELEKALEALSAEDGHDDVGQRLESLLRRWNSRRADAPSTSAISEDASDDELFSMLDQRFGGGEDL

Data set [2] deals with T2, diketide-ACP4(4) (DEBS ACP4 with its natural C-terminal linker, loaded with diketide), Q03132.
T2 chain: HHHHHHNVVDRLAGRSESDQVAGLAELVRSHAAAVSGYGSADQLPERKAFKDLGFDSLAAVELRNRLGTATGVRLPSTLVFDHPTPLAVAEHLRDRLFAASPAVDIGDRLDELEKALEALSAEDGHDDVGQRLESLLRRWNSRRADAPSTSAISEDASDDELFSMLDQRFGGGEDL

Data set [3] has as its target T3, diketide-ACP2(2) (DEBS ACP2 with its natural C-terminal linker, loaded with diketide), Q03131.
T3 chain: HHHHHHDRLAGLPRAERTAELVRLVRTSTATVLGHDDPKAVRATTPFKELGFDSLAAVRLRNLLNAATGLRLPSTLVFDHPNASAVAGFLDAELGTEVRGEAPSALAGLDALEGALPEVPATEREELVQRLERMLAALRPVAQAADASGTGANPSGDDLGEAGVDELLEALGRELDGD

B1: (5)M3+TE (module 3 of DEBS with the N-terminal linker of module 5, fused to thioesterase) (protein)
chain: MSGDNGMTEEKLRRYLKRTVTELDSVTARLREVEHRAGIAIVSMACRLPGGVNTPQRLWELLREGGETLSGFPTDRGWDLARLHHPDPDNPGTSYVDKGGFLDDAAGFDAEFFGVSPREAAAMDPQQRLLLETSWELVENAGIDPHSLRGTATGVFLGVAKFGYGEDTAAAEDVEGYSVTGVAPAVASGRISYTMGLEGPSISVDTACSSSLVALHLAVESLRKGESSMAVVGGAAVMATPGVFVDFSRQRALAADGRSKAFGAGADGFGFSEGVTLVLLERLSEARRNGHEVLAVVRGSALNQDGASNGLSAPSGPAQRRVIRQALESCGLEPGDVDAVEAHGTGTALGDPIEANALLDTYGRDRDADRPLWLGSVKSNIGHTQAAAGVTGLLKVVLALRNGELPATLHVEEPTPHVDWSSGGVALLAGNQPWRRGERTRRARVSAFGISGTNAHVIVEEAPEREHRETTAHDGRPVPLVVSARTTAALRAQAAQIAELLERPDADLAGVGLGLATTRARHEHRAAVVASTREEAVRGLREIAAGAATADAVVEGVTEVDGRNVVFLFPGQGSQWAGMGAELLSSSPVFAGKIRACDESMAPMQDWKVSDVLRQAPGAPGLDRVDVVQPVLFAVMVSLAELWRSYGVEPAAVVGHSQGEIAAAHVAGALTLEDAAKLVVGRSRLMRSLSGEGGMAAVALGEAAVRERLRPWQDRLSVAAVNGPRSVVVSGEPGALRAFSEDCAAEGIRVRDIDVDYASHSPQIERVREELLETTGDIAPRPARVTFHSTVESRSMDGTELDARYWYRNLRETVRFADAVTRLAESGYDAFIEVSPHPVVVQAVEEAVEEADGAEDAVVVGSLHRDGGDLSAFLRSMATAHVSGVDIRWDVALPGAAPFALPTYPFQRKRYWLQPAAPAAASDELAYRVSWTPIEKPESGNLDGDWLVVTPLISPEWTEMLCEAINANGGRALRCEVDTSASRTEMAQAVAQAGTGFRGVLSLLSSDESACRPGVPAGAVGLLTLVQALGDAGVDAPVWCLTQGAVRTPADDDLARPAQTTAHGFAQVAGLELPGRWGGVVDLPESVDDAALRLLVAVLRGGGRAEDHLAVRDGRLHGRRVVRASLPQSGSRSWTPHGTVLVTGAASPVGDQLVRWLADRGAERLVLAGACPGDDLLAAVEEAGASAVVCAQDAAALREALGDEPVTALVHAGTLTNFGSISEVAPEEFAETIAAKTALLAVLDEVLGDRAVEREVYCSSVAGIWGGAGMAAYAAGSAYLDALAEHHRARGRSCTSVAWTPWALPGGAVDDGYLRERGLRSLSADRAMRTWERVLAAGPVSVAVADVDWPVLSEGFAATRPTALFAELAGRGGQAEAEPDSGPTGEPAQRLAGLSPDEQQENLLELVANAVAEVLGHESAAEINVRRAFSELGLDSLNAMALRKRLSASTGLRLPASLVFDHPTVTALAQHLRICCAGTAAISGPHEFTRLAGALRGIAPVRAVPQPGYEEGEPLPSSMAAVAAVQADAVIRTQGDKPFVVAGHSAGALMAYALATELLDRGHPPRGVVLIDVYPPGHQDAMNAWLEELTATLFDRETVRMDDTRLTALGAYDRLTGQWRPRETGLPTLLVSAGEPMGPWPDDSWKPTWPFEHDTVAVPGDHFTMVQEHADAIARHIDAWHHHHHH
Usually kcat/KM stands for the turnover number divided by the Michaelis constant. With B1, in data set [1], the “KM of transfer and elongation, fold increase against the natural linker pair (diketide-ACP2(2) with (3)M3+TE)” value is listed as “increases the KM for the ACP2-module 3 reaction by approximately 7-fold”; the specificity constant (kcat/KM) result is “the kcat/KM value decreases to 56 min^-1mM^-1”. Besides, in data set [2], the “kcat/KM, fold decrease against the matched reaction (FIG. 27 C)” value was “fell approximately 3-5 fold and 80-200 fold, respectively”; the “triketide lactone formation at 20 µM substrate (FIG. 27 C)” value was “transfer of diketide from the donor ACP to the acceptor module occurred at 20 µM substrate concentration”.

B2: M3+TE (module 3 of DEBS with its own N-terminal linker, fused to thioesterase) (protein)
chain: VTDSEKVAEYLRRATLDLRAARQRIRELESIAIVSMACRLPGGVNTPQRLWELLREGGETLSGFPTDRGWDLARLHHPDPDNPGTSYVDKGGFLDDAAGFDAEFFGVSPREAAAMDPQQRLLLETSWELVENAGIDPHSLRGTATGVFLGVAKFGYGEDTAAAEDVEGYSVTGVAPAVASGRISYTMGLEGPSISVDTACSSSLVALHLAVESLRKGESSMAVVGGAAVMATPGVFVDFSRQRALAADGRSKAFGAGADGFGFSEGVTLVLLERLSEARRNGHEVLAVVRGSALNQDGASNGLSAPSGPAQRRVIRQALESCGLEPGDVDAVEAHGTGTALGDPIEANALLDTYGRDRDADRPLWLGSVKSNIGHTQAAAGVTGLLKVVLALRNGELPATLHVEEPTPHVDWSSGGVALLAGNQPWRRGERTRRARVSAFGISGTNAHVIVEEAPEREHRETTAHDGRPVPLVVSARTTAALRAQAAQIAELLERPDADLAGVGLGLATTRARHEHRAAVVASTREEAVRGLREIAAGAATADAVVEGVTEVDGRNVVFLFPGQGSQWAGMGAELLSSSPVFAGKIRACDESMAPMQDWKVSDVLRQAPGAPGLDRVDVVQPVLFAVMVSLAELWRSYGVEPAAVVGHSQGEIAAAHVAGALTLEDAAKLVVGRSRLMRSLSGEGGMAAVALGEAAVRERLRPWQDRLSVAAVNGPRSVVVSGEPGALRAFSEDCAAEGIRVRDIDVDYASHSPQIERVREELLETTGDIAPRPARVTFHSTVESRSMDGTELDARYWYRNLRETVRFADAVTRLAESGYDAFIEVSPHPVVVQAVEEAVEEADGAEDAVVVGSLHRDGGDLSAFLRSMATAHVSGVDIRWDVALPGAAPFALPTYPFQRKRYWLQPAAPAAASDELAYRVSWTPIEKPESGNLDGDWLVVTPLISPEWTEMLCEAINANGGRALRCEVDTSASRTEMAQAVAQAGTGFRGVLSLLSSDESACRPGVPAGAVGLLTLVQALGDAGVDAPVWCLTQGAVRTPADDDLARPAQTTAHGFAQVAGLELPGRWGGVVDLPESVDDAALRLLVAVLRGGGRAEDHLAVRDGRLHGRRVVRASLPQSGSRSWTPHGTVLVTGAASPVGDQLVRWLADRGAERLVLAGACPGDDLLAAVEEAGASAVVCAQDAAALREALGDEPVTALVHAGTLTNFGSISEVAPEEFAETIAAKTALLAVLDEVLGDRAVEREVYCSSVAGIWGGAGMAAYAAGSAYLDALAEHHRARGRSCTSVAWTPWALPGGAVDDGYLRERGLRSLSADRAMRTWERVLAAGPVSVAVADVDWPVLSEGFAATRPTALFAELAGRGGQAEAEPDSGPTGEPAQRLAGLSPDEQQENLLELVANAVAEVLGHESAAEINVRRAFSELGLDSLNAMALRKRLSASTGLRLPASLVFDHPTVTALAQHLRICCAGTAAISGPHEFTRLAGALRGIAPVRAVPQPGYEEGEPLPSSMAAVAAVQADAVIRTQGDKPFVVAGHSAGALMAYALATELLDRGHPPRGVVLIDVYPPGHQDAMNAWLEELTATLFDRETVRMDDTRLTALGAYDRLTGQWRPRETGLPTLLVSAGEPMGPWPDDSWKPTWPFEHDTVAVPGDHFTMVQEHADAIARHIDAWHHHHHH
In the case of B2, in data set [3], the “k60 µM (overall rate of product formation at 60 µM substrate)” value turned out to be 1.4 min-, the specificity constant (kcat/KM) came to 390 min⁻¹ mM⁻¹ and the “triketide lactone formation at 20 µM substrate (FIG. 27 A)” value is “transfer of diketide from the donor ACP to the acceptor module occurred at 20 µM substrate concentration”. For the same protein, in data set [1], the “kcat/KM, fold decrease against the matched reaction (FIG. 27 B)” value is “fell approximately 3-5 fold and 80-200 fold, respectively”; the “triketide lactone formation at 20 µM substrate (FIG. 27 B)” value is listed as “transfer of diketide from the donor ACP to the acceptor module occurred at 20 µM substrate concentration”. In addition, the “triketide lactone formation at 20 µM substrate (FIG. 27 D)” value in data set [2] was “no product was detected at the same substrate concentrations”.

The values are drawn from patent US20060110789.
